In experiment [1] the target is T1, encapsulin from Mycobacterium smegmatis (UniProt ID: I7G8Y9), C-terminal Strep-tag (Mycobacterium smegmatis mc2 155). Description: SDS-PAGE gel densitometry of the co-purified complex; Enc{tdNfsB} at 500 ug/mL on a 15% gel, Coomassie; calibration curves of Enc and tdNfsB; molar ratio of tdNfsB (52.3 kDa) to Enc shell (1804.2 kDa); repeated twice.
Experiment [2] addresses T1, encapsulin from Mycobacterium smegmatis. Description: cryo-EM structure; same data set of purified Enc{tdNfsB}; the shell was subtracted from the particles, 2-D classification and low-resolution 3-D reconstruction of the interior; cargo and shell co-expressed in E. coli.
For experiment [3], the target named is NfsB with C-terminal encapsulin localization sequence (cargo of Enc{NfsB}) (E. coli | M. smegmatis).

Values joined by “and” are separate entries in the source; they are usually repeats but may differ in a detail not shown here. Equal entries are not always repeated.

In the case of “tandem NfsB with C-terminal encapsulin localization sequence (cargo of Enc{tdNfsB}) (enzyme)”, the stoichiometry N (tdNfsB units per shell) in experiment [1] was 10 and 13. In experiment [2], this substance had a stoichiometry N (tdNfsB per capsid) of 6.
As for “NfsB with C-terminal encapsulin localization sequence (cargo of Enc{NfsB}) (enzyme)”, in experiment [3], the conversion of caged-hydroxy-CBT after 60 min by Enc{NfsB} (coupled luciferase assay), against 50% for free NfsB and tdNfsB and a comparable conversion for Enc{tdNfsB} was 10%.

The values above are taken from publication PMC11532998.
